Consider 8 molecules from patent US20200308228A1 (KING ABDULAZIZ UNIVERSITY, published 2020).

For data set [1], the target named is T1, NS3 of SEQ ID NO: 3 (NS3 domain of Hepatitis C virus genotype 4a fused to the T7 tag at the N-terminus and … (Hepatitis C virus (genotype 4a))).
T1 construct: also called HCV NS3 genotype 4a
T1 chain: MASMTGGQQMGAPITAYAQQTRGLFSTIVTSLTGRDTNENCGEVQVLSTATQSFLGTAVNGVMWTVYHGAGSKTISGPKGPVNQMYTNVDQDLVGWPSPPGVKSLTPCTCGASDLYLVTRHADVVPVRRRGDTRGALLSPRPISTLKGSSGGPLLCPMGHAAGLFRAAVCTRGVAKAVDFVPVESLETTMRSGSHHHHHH
Kind of data set: differential static light scattering (DSLS), NS3:peptide 1:2, 2 h at room temperature.

Data set [2] deals with T1, NS3 of SEQ ID NO: 3 (NS3 domain of …). Nature of the data set: differential static light scattering (DSLS).
For data set [3] the target is unchanged. Nature of the data set: competition fluorescence anisotropy against 0.1 µM labelled NS4A peptide with 1.8 µM NS3.
For data set [4] the target is unchanged. Nature of the data set: fluorescence anisotropy, 0.1 µM labelled peptide titrated with NS3.
In data set [5] the target is T2, Pep-15 of SEQ ID NO: 20 (KKGSx[…]).
T2 chain: KKGSGVIVGRIVLSGKK

Entries after “also recorded” stand apart in the source; their conditions may differ. Where no end group is shown, it is not given here. [ ]: non-standard residue; d: D form. The star is where a group is joined. FITC = O=C1OC2(c3ccc(O)cc3Oc3cc(O)ccc32)c2ccc(NC(=S)*)cc21; hI = homoisoleucine, (2S)-2-amino-4-methylhexanoic acid; Chg = N[C@H](C(=O)O)C1CCCCC1; Ahx = NCCCCCC(=O)O

B1: NS4A peptide of SEQ ID NO: 4 (KK-[…]-KK, comprising the native NS4A21-33 of SEQ ID NO: 2) (peptide)
peptide: KKGSVVIVGRIVLSGKK
notes: Synthetic peptide; the KK at each end is not part of NS4A
On to B1, for which the ΔTagg in data set [1] was found to be 2.83 ° C.
As for KKGSAVIVGRIVLSGKK [Pep-13 of SEQ ID NO: 18 (KKGSAVIVGRIVLSGKK)], the binding result in data set [2] is “binds”.
With KKGSWVIVGRIVLSGKK [Pep-12 of SEQ ID NO: 17 (KKGSWVIVGRIVLSGKK)], in data set [2], the binding result is on record as “binds”.
In the case of KKGS[hI]VIVGRIVLSGKK [Pep-14 of SEQ ID NO: 19 (KKGSh[…])], the binding result in data set [2] was “binds”.
Consider KKGS[Chg]VIVGRIVLSGKK [Pep-15 of SEQ ID NO: 20 (KKGSx[…])], for which the Tagg shift in data set [2] is 3.9 ° C. Besides, binding in data set [3] was characterised by a dissociation constant (Kd) of 70 nM.
As to KKGSFVIVGRIVLSGKK [Pep-11 of SEQ ID NO: 16 (KKGSFVIVGRIVLSGKK)], in data set [2], the binding result was “binds”.

B2: isothiocyanate-labeled NS4A peptide of SEQ ID NO: 25 (FITC-NS4A) (peptide)
peptide: {FITC}-[Ahx]KKGSVVIVGRIVLSGKK
notes: also called fluorescein isothiocyanate-NS4A
B2 showed a Kd in data set [4] of 169 nM.

B3: NS3 of SEQ ID NO: 3 (NS3 domain of Hepatitis C virus genotype 4a fused to the T7 tag at the N-terminus and 6-His tag at the C-terminus) (protein)
chain: MASMTGGQQMGAPITAYAQQTRGLFSTIVTSLTGRDTNENCGEVQVLSTATQSFLGTAVNGVMWTVYHGAGSKTISGPKGPVNQMYTNVDQDLVGWPSPPGVKSLTPCTCGASDLYLVTRHADVVPVRRRGDTRGALLSPRPISTLKGSSGGPLLCPMGHAAGLFRAAVCTRGVAKAVDFVPVESLETTMRSGSHHHHHH
B3: the “protease activity (cleavage of 5FAM-substrate of SEQ ID NO: 22, fluorescence at 520 nm)” value in data set [5] is “maintained 69.7% of the enzyme activity during the first 60 minutes; also recorded: After 60 minutes, it was observed that the activity of the enzyme completely disappeared”.
